Biological target: HA-FBW7 (UniProt Q8VBV4)
Test: FLAG IP, HA immunoblot
Settings: reference: wild type

binding against the reference (sites T171,S175) | binding against the reference (sites T243,S247) | Substance
weaker |  | KLF2 (3xFLAG-KLF2) (from UniProt Q60843) 2A N (T171A/S175A)
 | weaker | KLF2 (3xFLAG-KLF2) (from UniProt Q60843) 2A C (T243A/S247A)
